Assay [1] has as its target T1, Human MerTK on hMerTK-expressing cells (human, UniProt Q12866 21-999).
T1 sequence: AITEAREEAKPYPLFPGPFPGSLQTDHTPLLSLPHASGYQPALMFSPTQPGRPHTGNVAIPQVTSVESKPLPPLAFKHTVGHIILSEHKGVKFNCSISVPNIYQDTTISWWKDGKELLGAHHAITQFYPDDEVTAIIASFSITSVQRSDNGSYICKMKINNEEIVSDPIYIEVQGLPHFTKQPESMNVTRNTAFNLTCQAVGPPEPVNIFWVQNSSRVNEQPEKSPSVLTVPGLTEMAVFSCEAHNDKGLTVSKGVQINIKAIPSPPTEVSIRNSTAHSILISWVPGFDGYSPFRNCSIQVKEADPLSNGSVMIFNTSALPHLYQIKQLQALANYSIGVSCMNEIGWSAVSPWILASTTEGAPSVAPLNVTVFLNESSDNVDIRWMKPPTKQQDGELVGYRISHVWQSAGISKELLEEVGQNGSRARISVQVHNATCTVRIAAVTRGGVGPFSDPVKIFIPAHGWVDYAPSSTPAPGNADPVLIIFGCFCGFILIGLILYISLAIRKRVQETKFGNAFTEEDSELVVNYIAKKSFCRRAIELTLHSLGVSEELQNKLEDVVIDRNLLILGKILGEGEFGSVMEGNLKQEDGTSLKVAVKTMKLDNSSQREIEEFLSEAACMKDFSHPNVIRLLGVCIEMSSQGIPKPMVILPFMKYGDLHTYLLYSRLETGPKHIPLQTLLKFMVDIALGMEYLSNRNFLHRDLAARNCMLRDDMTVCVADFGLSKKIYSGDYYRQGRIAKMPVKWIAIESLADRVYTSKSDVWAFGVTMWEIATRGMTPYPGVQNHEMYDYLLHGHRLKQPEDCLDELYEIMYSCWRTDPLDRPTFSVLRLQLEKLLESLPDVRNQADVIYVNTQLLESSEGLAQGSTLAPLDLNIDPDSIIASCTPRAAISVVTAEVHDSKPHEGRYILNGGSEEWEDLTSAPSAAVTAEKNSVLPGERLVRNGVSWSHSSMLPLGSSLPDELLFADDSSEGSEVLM
In words: cell-based or functional assay.

The target in assay [2] is T2, Mouse MerTK on mMerTK-expressing cells (mouse, UniProt Q60805 19-994).
T2 sequence: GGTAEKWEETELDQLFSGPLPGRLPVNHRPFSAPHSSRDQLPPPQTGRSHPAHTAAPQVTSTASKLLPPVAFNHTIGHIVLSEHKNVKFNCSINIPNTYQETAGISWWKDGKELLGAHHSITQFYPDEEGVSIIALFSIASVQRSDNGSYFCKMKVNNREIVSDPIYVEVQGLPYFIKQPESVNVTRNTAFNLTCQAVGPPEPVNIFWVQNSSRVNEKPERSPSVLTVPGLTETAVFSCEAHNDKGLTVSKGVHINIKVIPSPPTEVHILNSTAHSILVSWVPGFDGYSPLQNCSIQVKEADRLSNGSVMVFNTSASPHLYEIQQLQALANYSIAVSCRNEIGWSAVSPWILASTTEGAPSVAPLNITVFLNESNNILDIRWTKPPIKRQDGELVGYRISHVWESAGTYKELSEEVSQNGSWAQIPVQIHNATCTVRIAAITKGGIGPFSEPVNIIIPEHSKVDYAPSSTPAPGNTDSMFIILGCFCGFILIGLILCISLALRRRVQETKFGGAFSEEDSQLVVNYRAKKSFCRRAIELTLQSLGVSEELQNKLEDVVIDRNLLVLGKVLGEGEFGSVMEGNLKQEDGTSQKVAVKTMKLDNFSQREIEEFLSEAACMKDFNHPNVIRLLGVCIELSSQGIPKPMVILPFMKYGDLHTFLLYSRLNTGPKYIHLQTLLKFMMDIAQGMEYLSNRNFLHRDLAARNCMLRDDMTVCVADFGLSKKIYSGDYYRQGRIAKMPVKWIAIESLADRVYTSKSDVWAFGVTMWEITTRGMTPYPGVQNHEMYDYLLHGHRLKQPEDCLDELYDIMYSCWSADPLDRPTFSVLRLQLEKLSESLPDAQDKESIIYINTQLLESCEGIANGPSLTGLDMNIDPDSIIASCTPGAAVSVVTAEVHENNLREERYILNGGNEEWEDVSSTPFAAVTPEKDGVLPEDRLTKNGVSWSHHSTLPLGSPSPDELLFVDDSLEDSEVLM
As to the kind of experiment: cell-based or functional assay.

Assay [3] deals with T1, Human MerTK on hMerTK-expressing cells. In words: binding to hMerTK-expressing cells.
The target in assay [4] is T3, Recombinant soluble extracellular domain of human MerTK (human, UniProt Q12866 21-505).
T3 construct: SPR analyte; also called hMerTK
T3 sequence: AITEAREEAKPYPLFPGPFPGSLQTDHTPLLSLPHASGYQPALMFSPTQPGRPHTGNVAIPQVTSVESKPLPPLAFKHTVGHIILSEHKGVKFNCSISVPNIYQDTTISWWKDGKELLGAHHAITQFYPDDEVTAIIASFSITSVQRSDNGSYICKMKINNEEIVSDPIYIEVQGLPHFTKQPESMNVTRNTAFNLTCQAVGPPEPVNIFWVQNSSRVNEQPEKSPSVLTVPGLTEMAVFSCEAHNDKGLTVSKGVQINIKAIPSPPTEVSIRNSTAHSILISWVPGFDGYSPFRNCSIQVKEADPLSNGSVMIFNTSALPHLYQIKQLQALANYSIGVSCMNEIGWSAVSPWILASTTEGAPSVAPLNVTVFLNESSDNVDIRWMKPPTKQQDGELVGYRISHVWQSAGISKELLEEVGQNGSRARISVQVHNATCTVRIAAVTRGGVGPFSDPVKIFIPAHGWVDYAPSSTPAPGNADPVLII
As to the kind of experiment: SPR, soluble MerTK ECD; format for mouse mAbs not detailed.

Assay [5] deals with T4, Recombinant soluble extracellular domain of cynomolgus monkey MerTK (cynomolgus monkey, UniProt Q12866 21-505 (human entry)).
T4 construct: SPR analyte; also called cMerTK; Cynomolgus MerTK
T4 chain: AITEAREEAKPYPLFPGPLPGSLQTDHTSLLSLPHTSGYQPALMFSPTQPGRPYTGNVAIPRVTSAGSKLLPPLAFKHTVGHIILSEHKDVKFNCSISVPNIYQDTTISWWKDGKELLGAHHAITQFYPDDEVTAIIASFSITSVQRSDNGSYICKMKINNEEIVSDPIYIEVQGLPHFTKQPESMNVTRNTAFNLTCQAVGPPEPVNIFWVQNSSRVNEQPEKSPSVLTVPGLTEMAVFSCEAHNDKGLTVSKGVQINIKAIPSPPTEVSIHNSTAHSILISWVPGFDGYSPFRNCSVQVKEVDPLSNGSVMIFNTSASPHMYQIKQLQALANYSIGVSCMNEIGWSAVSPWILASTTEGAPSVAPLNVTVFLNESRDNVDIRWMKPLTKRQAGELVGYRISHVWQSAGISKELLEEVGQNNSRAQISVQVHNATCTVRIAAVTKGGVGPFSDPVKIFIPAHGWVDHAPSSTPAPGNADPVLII
Described as above.

In assay [6] the target is T5, Recombinant soluble extracellular domain of mouse MerTK (mouse, UniProt Q60805 19-497).
T5 construct: SPR analyte; also called mMerTK
T5 sequence: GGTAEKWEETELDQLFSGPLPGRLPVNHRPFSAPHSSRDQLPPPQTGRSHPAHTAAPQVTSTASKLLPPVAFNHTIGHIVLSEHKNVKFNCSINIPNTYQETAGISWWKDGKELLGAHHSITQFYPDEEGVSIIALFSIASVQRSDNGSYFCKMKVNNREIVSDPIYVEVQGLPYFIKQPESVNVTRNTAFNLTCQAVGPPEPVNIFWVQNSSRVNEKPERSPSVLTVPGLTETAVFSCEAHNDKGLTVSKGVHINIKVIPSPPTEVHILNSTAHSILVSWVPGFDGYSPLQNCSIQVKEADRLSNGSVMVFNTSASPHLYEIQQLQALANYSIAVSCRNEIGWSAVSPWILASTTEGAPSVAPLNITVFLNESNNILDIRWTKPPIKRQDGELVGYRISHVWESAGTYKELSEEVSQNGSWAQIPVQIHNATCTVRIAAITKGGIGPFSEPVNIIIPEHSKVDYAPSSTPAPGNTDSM
Described as above.

A word on the Kd: it is the constant that tells how readily two partners part at equilibrium. Usually koff stands for the first-order rate constant of dissociation. As usually defined, the kon is a measure of how fast the partners come together.

B1: MoMAb 16B9 (antibody, V domains shown)
VH: EVQLQQSRPDLVKPGASVKMSCKASGYTFIDYNMHWVKQRHGKSLEWIGYIHPNNGGTSYNQKFKDKATLTMNKSSSTAYMELRSLTSEDSAVYYCSRSGIYYDYDSFFDYWGQGTTLTVSS
VL: DIQMTQSPASLYVSVGETVTITCRASENIYSHLAWYQQKLGKSPHLLVYAATNLADGVPSRFSGSGSGTQYSLKINSLQSEDFGSYYCQHFWGSPWTFGGGTKLEIK
notes: Mouse mAb
Consider B1, for which, in assay [1], the “Signaling Assay, hMerTK with Gas6, pSTAT1 IC50 (nM)” value was more than 100 nM and the “Signaling Assay, hMerTK without Gas6, pSTAT1 IC50 (nM)” value is more than 100 nM. For the same molecule, the “Signaling Assay, mMerTK with Gas6, pSTAT1 IC50 (nM)” value in assay [2] was 0.9 nM. The binding result in assay [3] was “no binding”. Besides, the Kd in assay [4] was more than 250 nM. In assay [5], the equilibrium dissociation constant (Kd) is more than 100 nM. In assay [6], the Kd was 35.1 nM, the off-rate (koff) was found to be 0.00256 s⁻¹, the kon amounted to 72700 M⁻¹ s⁻¹ and the t1/2 is 4.5 min.

B2: MoMAb 4E9 (antibody, V domains shown)
VH: QIQLVQSGPELKKPGETVKISCKASGNTFTTYGMSWVKQAPGKNLKWMGWINNYSGVSTYADDFKGRFAFSLETSATTAYLQINNLTNEDSATYFCARDYYGSGGWVFDYWGQGTTLTVSS
VL: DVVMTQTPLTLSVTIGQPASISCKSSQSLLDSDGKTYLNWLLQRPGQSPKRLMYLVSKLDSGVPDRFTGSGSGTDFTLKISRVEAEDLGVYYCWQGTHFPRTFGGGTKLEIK
notes: Mouse mAb; Bin 2
Take B2: in assay [1], the “Inhibition of Efferocytosis IC50” value was 0.632 nM; the “Signaling Assay, hMerTK with Gas6, pSTAT1 IC50 (nM)” value worked out at 1.52 nM; the “Signaling Assay, hMerTK without Gas6, pSTAT1 IC50 (nM)” value was more than 100 nM. For the same molecule, the “Signaling Assay, mMerTK with Gas6, pSTAT1 IC50 (nM)” value in assay [2] was 1.86 nM. Also, in assay [4], the koff worked out at 0.00114 s⁻¹ and the t1/2 was determined as 10.1 min. In addition, in assay [5], the dissociation constant (Kd) came out at 40 nM, the koff was found to be 0.00112 s⁻¹, the kon is 28400 M⁻¹ s⁻¹ and the t1/2 was 10.3 min. Further, in assay [6], the dissociation constant Kd was determined as 9.7 nM, the koff turned out to be 0.00133 s⁻¹, the kon was 137000 M⁻¹ s⁻¹ and the t1/2 amounted to 8.7 min.

The values above are taken from patent US20210395392A1 (Bristol-Myers Squibb, published 2021).
